Columns and labels:
hfRPE monolayer = assay: fluorescence imaging of intracellular calcium; type: cell-based, human; conditions: IFNγ 0.5, 5, 50 ng/ml both sides; n=4
Experimental: Therefore, whether the CFTR pathway was involved in the response to IFNγ was examined using cAMP assays as described in Example 8. Primary cultures of hfRPE cells were incubated in control media, in the presence of IFNγ (0.5, 5, or 50 ng/ml), or in forskolin containing media (10 μM) for different amounts of time (5 minutes, 45 minutes, 12 hours, or 24 hours), and then total intracellular cAMP levels were measured using a cAMP ELISA System (Applied Biosystems, Foster City, Calif.). […] (n=3; P<0.05). […] In a separate set of experiments, fluorescence imaging was used to measure the intracellular concentration of calcium [Ca^2+]I in the presence of IFNγ (0.5, 5, 50 ng/ml) added to both sides of the hfRPE monolayer and no change in total cell [Ca^2+]I was observed (n=4, data not shown).

hfRPE monolayers = assay: electrophysiology of hfRPE monolayers (TEP, RT, VA, VB, RA/RB); type: cell-based, human
Source text: Equivalent circuit analysis and electrophysiological methods have been previously described in Quinn, R. H., et al., Invest Ophthalmol Vis Sci, 1992, 33, 3513-3527; Joseph D. P., et al., J Physiol, 1991, 435, 439-463; and Maminishkis, A., et al., 2006, Ophthalmol Vis Sci, 47, 3612-3624each incorporated herein by reference in its entirety.
Briefly, confluent monolayers of cultured hfRPE were mounted on a nylon mesh support and clamped into a modified Üssing chamber that allowed the rapid exchange of Ringer's solution (≈10 chamber volumes per minute) and the measurement of fast electrical changes in seconds. The electrical connections to the apical and basal chambers were made with Ringer-agar bridges in series with calomel electrodes. Intracellular potentials were recorded with conventional microelectrodes, back-filled with 150 mM KCl, with resistances of 80 to 200 Ma The apical and basolateral membrane potentials (VA and VB) are calculated as the voltage differences between the intracellular microelectrode and the apical and basal bath electrodes, respectively. The resistances of the apical and basolateral membranes were designated RA and RB, respectively, and the transepithelial potential (TEP=VB-VA) is the voltage difference between the apical and basal bath electrodes. Epithelial resistance parameters were obtained by passing 4-μA bipolar current pulses (i) using Ag—AgCl electrodes, one located in the apical chamber and the other located in the basal chamber. The total transepithelial resistance (Rt) is calculated from the current-induced changes in TEP (Rt=ΔTEP/i). The apparent membrane resistance ratio (RA/RB) is calculated from the ratio of change in VA to change in VB (RA/RB=ΔVA/ΔVB).
The control Ringer's solution for measurements of TEP and Rt in culture hfRPE contained 116 mM NaCl, 5 mM KCl, 26.2 mM NaHCO3, 1 mM NaH2PO4, 1 mM Mg Cl2, 1.8 mM CaCl2, 10 mM glucose, and 2 mM Taurine. The osmolarity of control Ringer's solution was 295 mOsm. The solutions were maintained at 35° C. and a pH of 7.4, and were bubbled with 10% O2, 5% CO2 and 85% N2. 8-Bromo-cAMP (or Dibutyryl cAMP), 8-Br-cGMP, and forskolin were obtained from Sigma-Aldrich.

[1] = IFNγ 100 ng/ml apical and basal, FIG. 17A
[2] = IFNγ 500 ng/mL apical and basal, FIG. 22

B1: IFNγ: pleiotropic cytokine produced by T- and NK-cells; obtained from Peprotech (protein, UniProt P01579 24-161, looked up)
Interferon gamma: QDPYVKEAENLKKYFNAGHSDVADNGTLFLGILKNWKEESDRKIMQSQIVSFYFKLFKNFKDDQSIQKSVETIKEDMNVKFFNSNKKKRDDFEKLTNYSVTDLNVQRKAIHELIQVMAELSPAAKTGKRKRSQMLFRG
- total cell [Ca^2+]I (hfRPE monolayer): no change
- RT decrease (hfRPE monolayers; [1]): 15 Ω·cm^2
- TEP increase (hfRPE monolayers; [1]): 0.9 mV
- depolarization of both VA and VB (hfRPE monolayers; [2]): approximately 2.5 mV
- increase in RA/RB (hfRPE monolayers; [2]): 0.2
- increase in TEP (hfRPE monolayers; [2]): 0.3 mV
- ΔRT (decrease) (hfRPE monolayers; IFNγ, mean of experiments): 17±2 Ω·cm^2
- ΔTEP (increase) (hfRPE monolayers; IFNγ, mean of experiments): 0.5±0.1 mV
